In the DeepSol protein solubility set:

Assay: soluble on expression in E. coli; label from the status in PepcDB or PDB records

Soluble on expression in E. coli, not soluble:
MGSDKIHHHHHHMQSTASHTKAPGKSHPVVTEDQYFSVSPLMLLADNAALFSVYLRQGNNFVLYTHAGEMFTHRHKQRLAENGVTEVWLKESQRHAYTAHVEQHLGNVLADDSLPAEARAGALYGIASDALQDVFAQHGAGALPADTARRARQLVEHIISFLKVPNGITALGRFIAHDYHSWTHSLNTTFYTLGILQSYGLPDESMAHIGLGAMLHDIGKAEIPSSILLKPGPLTASERQCINTHPLMGVARLAQTELPQTTLNCILFHHEKLDGSGYPSGIGGTAIPLAVRAVTVADIYDALASERPYAAARPPFAVLQLMRGEMADELDMDVFKNFVLMLSNAGLTKT
MGSDKIHHHHHHMQTLLITSSFDKTCDYIQVKFPELNYFRLNVDKFSSYKLEIIADGFRIECGEHRLFSSECSSIYFRKPVFENLDGNIDVQYHNFVHKESYSLIEGLIESFSGRCLSKPSVMRRANNKVFQIMLAKSVGFLMPQLSITNDEIVLKKWAKDDAIVKPLAIGTVEYKTKKEFVQTNRLSSEKDTSALKYAPVYLQKFVDKDYEVRVTAINGQFFPARIDASNPVDWRKPNTETLFTKCVLPENIEQQCRTYMYKSSMDFGCFDFLVKDNVWYFLEMNANGQWGWLDNLFEGKISDAIATYLKSGLKNAHC
MGSDKIHHHHHHMQVLLVGGTGTLGRQIARRAIDAGHQVRCMVRKPRKGAFLQEWGCELTCGDLLDPETIDYSLDGIDAVIDAATSRPDDSASVYTTDWDGKLNLLRACEKAGVTRYVFLSLLAAEKHLNVPLMDIKFCTERLLADSSFDYTILQGVAFMQGLIGQIAIPVLENQTVWVSETPTAVAYMNTQDVARFAVAALERPETIRRSFPVVGPKAWTSEEIVQFCEKSSSKTAKVIRVSPFLIGLSQRVVSFFEQSVNMAERLAFAEVTGGGIALDAPMDDTYSCFGLDSSETTPLESYISEYYDTILKRLREMEADLDEESRKKLPF
MGSDKIHHHHHHMREEAPSRAQRVIDNNDILFQCVRPYQKNNYIHRILNTSNQQWVASTGYAQIRTTELPNYIYHLLNTDEFNRKVMVRCTGSSYPAINSEDLATIHLYYTPDKKEQLKISRLLDLLDKRIATQNKIIEKLQSLIKGIAQHCIKESTSGNTYVKLGDICQITTGKLDANAQVDNGIYPFFTCAEQPFKIDSFAFDTEALLISGNGANLGYINYYKGKFNAYQRTVSIR
MGSDKIHHHHHHMREENYEEAAKAFNAAIEANPSDPIGFVNFGNLLGMVGELDKALIFFDKAIGLQEDCAPAYYGAGTIYYKQEKFEDGAKMFKQAIAHKLNETDVYFMLGMCYYQLGALPHAQANFQRALELDSNDVEARFQLGLCLAQLEQVDEAIKHLQLVVEHVPNHADAHFNLGVAYAYKDRLEEALAHFERAIHIQPEHILAHNGKKTVEEVLNKGANEA
MGSDKIHHHHHHMRETIREIQKVAYWLAIKGLSEANAGNISVRLDERPEGYEVKSVNEYGFDYDGPEMYLLITATGSRMREVYEDDSKICLLHVLPGKHYEILHGNGKPTSEFPTHLMIHAKFKEMNPEKKAIVHTHPLNLLTLMNLEEFQELLPKMMKIHPEVLIFFPQGISVVEFEKPGSVELGLKTVEKSEGKDAVLWDKHGVVAFGKDVAEAYDRVEILEKAAEILLRVLSLGRNPTGVPEGWL
MGSDKIHHHHHHMRGGNIETMVAGTIKVVQMLPDLNEGGVEKGTLELGAFLTESGHQSIVISGGGRMVSQLESEGSRHLTWPHIGEKSPRCLNYFFPLRRFLLKEGVDIVHLRSRLPAWVAFLAWKSLPVKRRPVLITTFHGFYSVNFYSAIMTRGERIIAVSKTIADHIREAYDVAAERIVLIPRGLDEEQFNPENVTVERIRNLKERWGLNGNTDPVVMLPGRVTRLKGQDVFLQSLAGIKELPWKAIMVGESDATSEYTRILEKMVGDPDLRERVKFVGHCSDMPAAMTLADIVVSTSTKPESFGRTSVEAQAMRKPVIVSAHGGSLETVLDGKTGWHVKPGDSEALSACLRIALSDESVRKKMGVEGRKWVVSQFTVTKMCEKTVALYQELLLRKSSWSQI
MGSDKIHHHHHHMRIAQIAPLHEAVPPKLYGGTERVVSYLTEALVEMGHDVTLFASGDSQTSAKLEAVWPQALRLDPTIRDVMAPHMLLLEEVRRRADEFDVLHFHIDYYPFPLFSRQPVPHLTTLHGRLDLPELQPIFNTFSDVPVVSISDNQRIPLSQANWLQTTYHGLPENLLKPIPDVKPSYLAFLGRISPEKRVDTAIRIAEQAGMPIKIAAKLDKADRAYYEEKIKPLFSLPHVEYIGEISEAEKAEFLGNAHALLFPIDWPEPFGLVMIEAMACGTPVIAFKRGSVPEVIENGVSGFVVEDELSAVAAVKRLNTLPRERVRAAFDARFTSKVMARNYVKGYEELLRQKRRTVLREVNAG
MGSDKIHHHHHHMRILYYDCFCGISGDMNLAALVDLGVPKKYLIDELLKLNLGSEYEIKIEKGQKLGITGTRVDVILKDEHHNKHELEEVLHNHEHKHNHHEIKNDEPAHSHEHHHRSLRDIEEIINSSTLNDKVKKLSLNIFMKVAEAEAKVHGRELYEVHFHEVGAVDSIVDIVGAAICIDYLKVDKILASRVQVGGGFVRCAHGIMPVPAPATVEILKNIPINTGIVQFETTTPTGAAILAANVKEFTQKLDFIIKKTAYGIGHRDLEIPNVLRVYLGEEESFQDIENQYILETNIDDMNPEIYGYVEEKLFKVGALDVFKTPICMKKGRPGIKLSVLTNEKSEREVLDVIFEETTSIGVRRYKVEKIMLKREFSKVKTEFGDITVKKAYYKGELVKYKPEYEECKDIAREKNVSIHKVYKAVYKQDLK
MGSDKIHHHHHHMRINVEEAIEKLLANQLVAMPTETVYGLAARLTCPGAIKKIFEIKGRSLVNPLIIHVANPIDVCAYAIALPPHFDALTHAFWPGPLTLIVPIQLDLVDSIVRAGLPTAAFRMPSHPLTLHVIRAVGPLVMPSANLSGKPSSTDVKHVEMDFGLDFPVLDGGPCQEGVESTILHYRNSQWEIARLGALSATVFQPILGYEPIYQKIVKNDQIISPGQMFRHYAPQATLFLGDQKQITEADFIVGFTEKSYPVEKRVLYLGSLSNPHEVAENLYAVLRQLDFEKAKIAWVDMDFPSEGLWKTIAERLSRAGEK
MGSDKIHHHHHHMRKEKLYTGCLLLMALITGSCSEEENPEVRPATKPAEPYTSYYYYSYEAARQLSATDFALAEGQFTPGPTYIKGDTLFVANIQSGAFSLELYDRNKNRHLASLKSWKYKEAEQKFPDKIEAIGISGNRLYLANISSRIDVFDVRTLEFITRIGTGNWGDGINQMVHSHAMAITPDGNIMIRTKKNLLVYREADVTLENYQKVPFYCRSKGDGMDVNNGFHSHQMVQDSTGIVYLADFGQYGNQKIQAIDTTLIEKGDQKILIDTEKTLPLSFNPCGIALHENRMILSAQNGSLFIYDRTKGNWENSFKSVKGYTFKKPEKLLVDQNTLWVSDVNAQKLVEVKIYKNEIREY
MGSDKIHHHHHHMRKKNYYLVSDGKLRRHENTIYFENEDGKRPIPINSIYAIYALGSLSITSKAISLLAKEGVCIHFFNRYGYYIGSFYPRESLVSGEVVLRQAEHHLDSEKRLHLARAFVEGAILNMARVLKKAEQDDSDVIASLQHLSSAKSIVELMGAEAAARNAYYTKFDEILKNFEFGKRSRMPPENEVNAMISFGNSLLYSAVLSEIYHTQLNPAISYLHEPSERRFSLALDIAELFKPVIVDRLIFYLVNNGIVTESDFDSRLGGILLSEEGKKKFVRHFNERLEKTVKHRKLNRKVSYQRLIRLECYKLVKHFTAVEKYSPFVMWW
MGSDKIHHHHHHMRKLKKYKPTAFIADGSYYDEDAADYAVAFIEALSHTKGLWAGKPFELIDWQEQIIRDLFGILKPDGYRQFNTAYVEIPKKMGKSELAAAIALLLTCGDGEERAEVYGCAADRQQASIVFEVAADMVRMCPALNKRVKLLASTKRLVYLPTNSFYQVLSAEAYSKHGFNIHGVVFDELHTQPNRKLFDVMTKGSGDARTQPLYFLITTAGTDTQSICYETHQKAVDIIEGRKYDPTFYPVIYGAKEEDDWTDPKVWKKANPSLGITVGIDKVRAACESAKQNPAEENSFRQLRLNQWVKQSVRWMPMAKWDACAFPVIPESLEGRVCYGGLDLSSTTDITAFVLVFPPEDETDKYIVLPYFWMPEDNIDLRVRRDHVQYDLWEKQGYILTTEGNVVHYGYIERFIEELGEKYNIREIAFDRWGAVQMVQNLEGAGFTVVPFGQGFKDMSPPTKELMKLTLEERIAHGGHPVLRWMMDNIFIKTDPAGNVKPDKEKSTEKIDGAVATIMALDRAIRCGSGNSGDSVYDERGLIVF
MGSDKIHHHHHHMRKSIVLSTAMALAAGTAAYAAEISDGKVKIGILNDQSGVYANFGGKYSYEAAKMAVEDFGGKVLGAPVEVVTADHQNKADVASNIARQWYDTEQVDSIMELTSSSVGLAVQALSKDKKKITVNTGAATTELTGKQCSPYGFHWAYDTYSLAVGTGGALVKQGGDSWFFLTADYAFGYSLEENTSNFVKANGGKVLGSVRHPLATTDYSSFLLQAQSSGAKVIGLANAGLDTSNAIKQASEFGIVAGGQRLAALLFTLAEVHGLGLEAAQGLTLTEGFYWDRDDESRKFGERFKERTGAMPNMIHTGTYSAVLHYLKAIEKAGTDDADAVAKAMKEMPVNDVFAKDGHVAANGRMIHDMYLMEVKKPDESKQPWDYYKVLATIPGKEAFMDPTKSGCPLVKQ
MGSDKIHHHHHHMRLKISLLSPADSFEIDLNHSYHLASAIYRAIERADPSLSIELHKPDVPKFFTFSKLFIPKRKFRIEGEKMVSDCEEAYFFFSTLRNEVAASLVEGLLSKPEIRICGVDFIVSEVSVLPEREVKGREKFVTLSPIYASTSVGENGRRRIFDLYPKDSKFYEVILQNLVKKYVLYYKSAPENLDFHMKPLNVKAKRIRLKDTFHRCVEMVFKAEGSPELLDVGYKAGFGSKNSMGFGMVKVV
MGSDKIHHHHHHMRLYESLLEMCLNKAWEHQTLALENPSVACMVLDKNHEILSLETHKKAKTPHAEVLAAQSALKILRPSLKNDLEKLEDPKTLSDFLKTHHDNAFTDCVFLITLEPCNSYGKTPACSELLEILKPKRVVIATEENEAKKGGLARLQKARIETIICHNLENKAKDLLLPFRVMEQKGRFNLFKLALRMNGDYHHGKITGQKSVIFTHNQRAICDTLIVSGKTIRTDNPLLDARFCDSFYQNKNPNIAILSKRSIDPNSKVFSAPNRLVNTFHDPKDLPLEKGFNFIEGGWELFESLRDKIDALLLHSHASMIGEAFKALALKTPFKGRLLHAQILENEALLWIENS
MGSDKIHHHHHHMRSIADQYNVSTNSVSRRILALGKQTMPAYDGLPQTLCIDEFRSTSNQMSFITIDGQKHDIITILPGRQTNEIKQFFLNHYSLKNREQVTQVVMDLNAQYQTFIHYLFPNAKLIVDNFHLVQMALRALNQTRVQLMKKYHPNTPEYWVLKSYWRLYLMNYEALEKSQPQWFSHLRNRLTQEQLIWSGLNLSHEFENTYFTAHKLVEAFRSRDYAAFTATLDEVENVSPQLFTTIKTFIKNKKLIQNMTSSTLSNGPIEGVNRKIKQIKRTAYGYRNWKNFVFRIQIEFKIRLKKRNPVRK
